Experimental data published in US20130089544A1 (AstraZeneca / MedImmune, published 2013).
Where a chain is given by its changes, count along the chain named. One block for each binder: values may come before it.

Experiments:
[1] = biological target: T1, human ErbB2, full length, on cells (human, UniProt P04626 23-1255); assay: cell-based or functional assay
[2] = biological target: T1, human ErbB2, full length, on cells; assay: cell-based or functional assay; remark: listed apart in the source
[3] = biological target: T1, human ErbB2, full length, on cells; assay: cell-based or functional assay; remark: listed apart in the source
[4] = biological target: T1, human ErbB2, full length, on cells; assay: cell-based or functional assay; remark: listed apart in the source
[5] = biological target: T1, human ErbB2, full length, on cells; assay: cell-based or functional assay; remark: listed apart in the source
[6] = biological target: T2, human ErbB2 ECD-myc/His fusion protein (human, UniProt P04626 23-652); assay: limited antigen ELISA, 31 ng/ml ErbB2 ECD-myc/His coated, supernatant 1:25
T2 construct: Made in-house in 293T cells; also called hErbB2(ECD)/cMyc-His; huErbB2 (ECD)/c-myc-His; not shown: c-myc/His tag of the pSecTag2Hygro vector
Experimental: […] […] Antigen-coated plates were washed three times, blocked with 1% non-fat skim milk/PBS for at least 30 minutes at room temperature, and then washed again three times. Each hybridoma line sample was titrated in 1% non-fat skim-milk/PBS 1:3 for 7 points starting from a 1:25 dilution. […] The next day, plates were washed three times and incubated with 50 μl of 400 ng/ml immunopure Goat anti-human IgG (Fc)-HRP (Pierce catalog #31416) for 1 hour at room temperature. Then, the plates were extensively washed and pat dried on paper towel to remove residual HRP in wells. HRP substrate TMB (enhanced K-blue TMB, Neogen catalog #308177) was added to each well and incubated for 30 min. The reaction was stopped by addition of 1N HCl. Optical density at 450 nm was read on a microplate reader (Titerteck Multiskan Ascent).

[7] = biological target: T2, human ErbB2 ECD-myc/His fusion protein; assay: SPR, Biacore 2000 medium resolution; mAb captured on goat anti-human IgG, ErbB2(ECD)-cMyc/His injected; 1:1 fit
Experimental: The binding affinity of eight of the anti-ErbB2 antibodies was measured by medium resolution Biacore. All experiments were performed using a Biacore 2000 instrument.
First, 12 high-density goat α-human IgG antibody surfaces over three CM5 Biacore chips were prepared using routine amine coupling. […] Before each antigen injection cycle, each mAb was captured for six to nine seconds at a 100 μL/min flow rate. A 2-minute wash step followed each capture injection to stabilize each mAb baseline. […] All samples were randomly injected with several mAb capture/buffer inject cycles interspersed for double referencing. […] A flow rate of 100 μL/min. was used for all injection cycles. The data was fit to a 1:1 interaction model using CLAMP.

[8] = biological target: T1, human ErbB2, full length, on cells; assay: cell-based or functional assay; remark: listed apart in the source
[9] = biological target: T2, human ErbB2 ECD-myc/His fusion protein; assay: SPR, Biacore T100 high resolution; mAb captured on goat anti-human IgG, hHer-2(ECD)cMyc injected; 1:1 fit
Experimental: All experiments were performed using a Biacore T100 instrument. First, a high-density goat α human IgG antibody (Caltag H10500) surface was prepared over two CM5 Biacore chips using routine amine coupling. Each mAb was diluted in HBS-P running buffer containing 100 μg/ml Bovine serum albumin (BSA).
A capture level protocol was developed for all five mAbs. Before each antigen injection cycle, each mAb was captured for 15 to 30 seconds at a 20 μL/min flow rate. A 5-minute wash step followed each capture injection to stabilize each mAb baseline. […] The samples were prepared in the running buffer described above. All samples were randomly injected with several mAb capture/buffer inject cycles interspersed for double referencing. […] A flow rate of 50 μL/min. was used for all injection cycles.
All sensorgram data were fit to a 1:1 interaction model using CLAMP.

- % Inhibition @10 µg/ml, Heregulin-induced MCF7 cell proliferation [1]: 94%
- EC50 (ng/ml), inhibition of Heregulin-induced MCF7 cell proliferation [1]: 415 ng/mL
- EC50 (ng/ml) n1, inhibition of Heregulin-induced ErbB2 phosphorylation in MCF7 cells [2]: 4.2 ng/mL
- EC50 (ng/ml) n2, inhibition of Heregulin-induced ErbB2 phosphorylation in MCF7 cells [2]: 10.8 ng/mL
- N1 % Inhibition @40 µg/ml, BT474 cell proliferation [3]: 34%
- N1 EC50 (ng/ml), inhibition of BT474 cell proliferation [3]: 38.1 ng/mL
- N2 % Inhibition @40 µg/ml, BT474 cell proliferation [3]: 39%
- N2 EC50 (ng/ml), inhibition of BT474 cell proliferation [3]: 28.2 ng/mL
- % Inhibition @10 µg/ml (n1), ErbB2 phosphorylation in BT474 cells at 48 hours [4]: 24%
- % Inhibition @10 µg/ml (n2), ErbB2 phosphorylation in BT474 cells at 48 hours [4]: 33%
- 1 hr pTyr inhibition % (Heregulin-induced ErbB2 phosphorylation in MCF7 cells, hybridoma supernatant) [5]: 85%
- 24 hr pTyr inhibition % (Heregulin-induced ErbB2 phosphorylation in MCF7 cells, hybridoma supernatant) [5]: 96%
- LA at 31 ng/ml (OD) [6]: 3.03 OD 450 nm
- Kd [7]: 3 nM
- koff [7]: 0.000302 s⁻¹
- kon [7]: 100000 M⁻¹ s⁻¹
- % inhibition @36 µg/ml, SKBR3 cell proliferation [8]: 46%
- EC50 (ng/ml), inhibition of SKBR3 cell proliferation [8]: 26.3 ng/mL
B1: monoclonal antibody 1.18.1 (antibody, V domains shown)
VH: EVQLVESGGGLVKPGGSLRLSCAASGFTFSSYSMNWVRQAPGKGLEWVSSISSSSSYIYYADSVKGRFTISRDNAKNSLYLQMNSLSAEDTAVYSCARGGDGYNYYYFDYWGQGTLVTVSS
VL: DIVMTQSPGSLVVSLGERATITCKSSQSVFFRSNNKNCLAWYQQRPGQSPNLLIYWASTRESGVPDRFSGSGSGTDFTLTISSLQAEDVAVYYCQQYFGSPFTFGPGTKVDIK
notes: Fully human IgG (gamma/kappa) from a XenoMouse XM3B-3 hybridoma; constant regions not tied to it

- % Inhibition @10 µg/ml, Heregulin-induced MCF7 cell proliferation [1]: 89%
- EC50 (ng/ml), inhibition of Heregulin-induced MCF7 cell proliferation [1]: 479 ng/mL
- EC50 (ng/ml) n1, inhibition of Heregulin-induced ErbB2 phosphorylation in MCF7 cells [2]: 46.9 ng/mL
- EC50 (ng/ml) n2, inhibition of Heregulin-induced ErbB2 phosphorylation in MCF7 cells [2]: 26.3 ng/mL
- Kd [9]: 13.4 nM
- koff [9]: 0.000214 s⁻¹
- kon [9]: 16000 M⁻¹ s⁻¹
- N1 % Inhibition @40 µg/ml, BT474 cell proliferation [3]: 29%
- N1 EC50 (ng/ml), inhibition of BT474 cell proliferation [3]: 156 ng/mL
- N2 % Inhibition @40 µg/ml, BT474 cell proliferation [3]: 40%
- N2 EC50 (ng/ml), inhibition of BT474 cell proliferation [3]: 42.3 ng/mL
- % Inhibition @10 µg/ml (n1), ErbB2 phosphorylation in BT474 cells at 48 hours [4]: 37%
- % Inhibition @10 µg/ml (n2), ErbB2 phosphorylation in BT474 cells at 48 hours [4]: 26%
- 1 hr pTyr inhibition % (Heregulin-induced ErbB2 phosphorylation in MCF7 cells, hybridoma supernatant) [5]: 82%
- 24 hr pTyr inhibition % (Heregulin-induced ErbB2 phosphorylation in MCF7 cells, hybridoma supernatant) [5]: 99%
- LA at 31 ng/ml (OD) [6]: 2.57 OD 450 nm
- Kd [7]: 2 nM
- koff [7]: 0.000236 s⁻¹
- kon [7]: 115000 M⁻¹ s⁻¹
- % inhibition @36 µg/ml, SKBR3 cell proliferation [8]: 41%
- EC50 (ng/ml), inhibition of SKBR3 cell proliferation [8]: 68.9 ng/mL
B2: monoclonal antibody 1.39 (antibody, V domains shown)
VH: B1 VH with S87R, S95Y
VL: B1 VL with G9D, V12A, S49P, T59S, T78A, A86T
notes: Fully human IgG (gamma/kappa) from a XenoMouse XM3B-3 hybridoma; constant regions not tied to it; also called 1.39.1; 1.39.2
